Experimental data as given in IntAct's records for PubMed 17272281.

B1: S-M checkpoint control protein rad4 (Schizosaccharomyces pombe (strain ATCC 38366 / 972)), P32372 (parent)
chain: MGSSKPLKGFVICCTSIDLKQRTEISTKATKLGAAYRSDFTKDVTHLIAGDFDTPKYKFAAKSRPDIKIMSSEWIPVLYESWVQGEDLDDGLLVDKHFLPTLFKCRVCLTNIGQPERSRIENYVLKHGGTFCPDLTRDVTHLIAGTSSGRKYEYALKWKINVVCVEWLWQSIQRNAVLEPQYFQLDMPAEKIGLGAYVRLDPNTTEAKSYSENQKISKNKEKSGQSLAALAEEADLEPVIMKRGKKRDRSILWEELNNGKFEFSSRSEENSVLLDDFTPETVQPLEENELDTELNIENEAKLFKNLTFYLYEFPNTKVSRLHKCLSDNGGQISEFLSSTIDFVVIPHYFPVDELPIFSFPTVNEWWIERCLYYKKIFGIDEHALAKPFFRPSLVPYFNGLSIHLTGFKGEELSHLKKALTILGAVVHEFLGVQRSILLVNTNEPFSMKTRFKIQHATEWNVRVVGVAWLWNIIQSGKFIDQVSPWAIDKKENQEIKKFTNQNNMVFPTSDRDTRLQNSLAQQPIGHSTPHNSPSLLSVKKRQNNHIRSNTLIQLNSNSKDSTIFPRRSVTVPGDKIDTVWKSSVTKPETPTSPQEHVSYIDPDAQREKHKLYAQLTSNVDAIPPANDLQNQENGLLLITESHRKLRRR
partner: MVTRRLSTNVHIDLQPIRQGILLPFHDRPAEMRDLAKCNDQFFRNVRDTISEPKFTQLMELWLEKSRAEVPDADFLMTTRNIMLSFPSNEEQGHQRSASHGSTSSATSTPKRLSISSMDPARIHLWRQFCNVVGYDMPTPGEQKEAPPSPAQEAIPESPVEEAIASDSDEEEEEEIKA

Variants of: B1
Conditions: with yq61_schpo yq61, O94733
For S171N, the “effect of a mutation on the interaction” value was “decreasing interaction”.
